The term Km denotes the substrate concentration at which the rate is half of its maximum.

In series [1] the target is T1, AtXTH22 (Arabidopsis thaliana, UniProt Q38857).
T1 construct: gene XTH22
T1 sequence (Q38857 22-284): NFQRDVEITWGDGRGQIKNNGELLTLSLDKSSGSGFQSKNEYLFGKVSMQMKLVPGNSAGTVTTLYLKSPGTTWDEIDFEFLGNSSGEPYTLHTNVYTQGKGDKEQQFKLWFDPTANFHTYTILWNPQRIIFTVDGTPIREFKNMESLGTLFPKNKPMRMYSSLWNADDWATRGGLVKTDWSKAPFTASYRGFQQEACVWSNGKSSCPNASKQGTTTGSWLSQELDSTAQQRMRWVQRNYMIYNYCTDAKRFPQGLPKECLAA
The experiment in a line: transglycosylation, size-exclusion chromatography with fluorescence detection. The class given is biochemical. As to conditions: 25 μM acceptor; donor tamarind xyloglucan 2 mg/mL; 50 mM sodium acetate pH 6.0, 30 °C, 24 h; labelled compound.

Substrate in series [2]: OC[C@@H](O)[C@@H](O[C@@H]1O[C@H](CO[C@H]2OC[C@@H](O)[C@H](O)[C@H]2O)[C@@H](O[C@@H]2O[C@H](CO[C@H]3OC[C@@H](O)[C@H](O)[C@H]3O)[C@@H](O[C@@H]3O[C@H](CO[C@H]4OC[C@@H](O)[C@H](O)[C@H]4O)[C@@H](O)[C@H](O)[C@H]3O)[C@H](O)[C@H]2O)[C@H](O)[C@H]1O)[C@H](O)[C@@H](O)CNc1ccccn1
The experiment in a line: transglycosylation, fluorescent product by anion-exchange LC after cellulase digestion. It is filed as biochemical, Arabidopsis thaliana. As to conditions: acceptor, donor amorphous cellulose, 50 mM sodium acetate pH 5.0, 30 °C, 6 h, labelled compound. The source says: (§1) transglycosylation, fluorescent product by anion-exchange LC after cellulase digestion on AtXTH3 | Michaelis constant (KM) and turnover number (kcat) for acceptor oligosaccharides (left: GGGG-AP; right: XXXG-AP)

Substrate in series [3]: OC[C@@H](O)[C@@H](O[C@@H]1O[C@H](CO)[C@@H](O[C@@H]2O[C@H](CO)[C@@H](O[C@@H]3O[C@H](CO)[C@@H](O)[C@H](O)[C@H]3O)[C@H](O)[C@H]2O)[C@H](O)[C@H]1O)[C@H](O)[C@@H](O)CNc1ccccn1
The description is as above. As to conditions: acceptor, donor amorphous cellulose, 50 mM sodium acetate pH 5.0, 30 °C, 6 h, labelled compound. The class given is biochemical, Arabidopsis thaliana.
Excerpt: as §1

Turning to `OC[C@@H](O)[C@@H](O[C@@H]1O[C@H](CO[C@H]2OC[C@@H](O)[C@H](O)[C@H]2O)[C@@H](O[C@@H]2O[C@H](CO[C@H]3OC[C@@H](O)[C@H](O)[C@H]3O)[C@@H](O[C@@H]3O[C@H](CO[C@H]4OC[C@@H](O)[C@H](O)[C@H]4O)[C@@H](O)[C@H](O)[C@H]3O)[C@H](O)[C@H]2O)[C@H](O)[C@H]1O)[C@H](O)[C@@H](O)CNc1ccccn1` [XXXG-AP, aminopyridyl xyloglucan-heptasaccharide], in series [1], the “transglycosylation, size-exclusion chromatography with fluorescence detection” value is listed as “AtXTH22 almost exclusively transferred xyloglucans to xyloglucan oligosaccharides”.

B1: AtXTH3 (Arabidopsis thaliana) (protein)
chain: RVFGGRGIEKFVTFGQNYIVTWGQSHVSTLHSGEEVDLYMDQSSGGGFESKDAYGSGLFEMRIKVPSGNTGGIVTAFYLTSKGGGHDEIDFEFLGNNNGKPVTLQTNLFLNGEGNREERFLLWFNPTKHYHTYGLLWNPYQIVFYVDNIPIRVYKNENGVSYPSKPMQVEASLWNGDDWATDGGRTKVNWSYSPFIAHFRDFALSGCNIDGRSNNVGACESSNYWWNAGNYQRLSGNEQKLYEHVRSKYMNYDYCTDRSKYQTPPRECY
For B1, the values for the Km in series [2] and in series [3] were 8.6 ± 2.3 µM and 58.8 ± 8.4 µM, respectively. Moreover, the kcat in series [2] was 9.0 ± 1.0 x10^-5 sec^-1; in series [3], 8.0 ± 0.5 x10^-5 sec^-1.

The values above are taken from publication PMC5405413, “The plant cell-wall enzyme AtXTH3 catalyses covalent cross-linking between cellulose and cello-oligosaccharide” (Scientific Reports, 2017).
